According to the RNAGym collection of RNA variant scans (doi:10.1093/molbev/msab373):

B1: Azoarcus group I ribozyme (parent)
chain: GUGCCUUGCGCCGGGAAACCACGCAAGGGAUGGUGUCAAAUUCGGCGAAACCUAAGCGCCCGCCCGGGCGUAUGGCAACGCCGAGCCAAGCUUCGGCGCCUGCGCCGAUGAAGGUGUAGAGACUAGACGGCACCCACCUAAGGCAAACGCUAUGGUGAAGGCAUAGUCCAGGGAGUGGCGAAAGUCACACAAACCGG

Variants of: B1
Test: reverse-splicing fitness (ratio to wild type); higher = more active; in vitro selection; Mg2+ level not given
Procedure, shortened: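 An in vitro group I ribozyme library with randomized positions was T7-transcribed and gel-purified. In triplicate, 10 pmol RNA in EPPS pH 7.5 was reacted with 50 pmoles of a 30-nt RNA substrate for 1 h at 37 °C across several added MgCl2 levels (1–48 mM), then stopped with EDTA. Products were reverse transcribed from a substrate-complementary primer, PCR-amplified and sequenced (HiSeq 4000). Fitness is a variant's read proportion after selection over that before, normalised to wild type.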

Variant | reverse-splicing fitness
C82G A111G A120C A145C C150A C169G U176A | 0.026
C82G A111G A120C A145C C150A C169G U176C | 0.0173
C82G A111G A120C A145C C150A C169G U176G | 0.00633
C82G A111G A120C A145C C150A C169U | 0.00986
C82G A111G A120C A145C C150A C169U U176A | 0.0148
C82G A111G A120C A145C C150A C169U U176C | 0.0126
C82G A111G A120C A145C C150A C169U U176G | 0.00668
C82G A111G A120C A145C C150A U176A | 0.0112
C82G A111G A120C A145C C150A U176C | 0.0111
C82G A111G A120C A145C C150A U176G | 0.00662
C82G A111G A120C A145C C150G | 0.0108
C82G A111G A120C A145C C150G C169A | 0.00872
C82G A111G A120C A145C C150G C169A U176A | 0.0108
C82G A111G A120C A145C C150G C169A U176C | 0.0103
C82G A111G A120C A145C C150G C169A U176G | 0.00627
C82G A111G A120C A145C C150G C169G | 0.00805
C82G A111G A120C A145C C150G C169G U176A | 0.0112
C82G A111G A120C A145C C150G C169G U176C | 0.0101
C82G A111G A120C A145C C150G C169G U176G | 0.006
C82G A111G A120C A145C C150G C169U | 0.00968
C82G A111G A120C A145C C150G C169U U176A | 0.00714

Variant | reverse-splicing fitness
C82G A111G A120C A145C C150G C169U U176C | 0.0131
C82G A111G A120C A145C C150G C169U U176G | 0.00551
C82G A111G A120C A145C C150G U176A | 0.00574
C82G A111G A120C A145C C150G U176C | 0.00886
C82G A111G A120C A145C C150G U176G | 0.0035
C82G A111G A120C A145C C150U | 0.0209
C82G A111G A120C A145C C150U C169A | 0.00918
C82G A111G A120C A145C C150U C169A U176A | 0.012
C82G A111G A120C A145C C150U C169A U176C | 0.00829
C82G A111G A120C A145C C150U C169A U176G | 0.00589
C82G A111G A120C A145C C150U C169G | 0.00849
C82G A111G A120C A145C C150U C169G U176A | 0.0242
C82G A111G A120C A145C C150U C169G U176C | 0.0152
C82G A111G A120C A145C C150U C169G U176G | 0.0061
C82G A111G A120C A145C C150U C169U | 0.0103
C82G A111G A120C A145C C150U C169U U176A | 0.013
C82G A111G A120C A145C C150U C169U U176C | 0.0121
C82G A111G A120C A145C C150U C169U U176G | 0.00553
C82G A111G A120C A145C C150U U176A | 0.0141
C82G A111G A120C A145C C150U U176C | 0.0167
C82G A111G A120C A145C C150U U176G | 0.00724

Variant | reverse-splicing fitness
C82G A111G A120C A145C C169A | 0.00695
C82G A111G A120C A145C C169A U176A | 0.0154
C82G A111G A120C A145C C169A U176C | 0.0106
C82G A111G A120C A145C C169A U176G | 0.00459
C82G A111G A120C A145C C169G | 0.00871
C82G A111G A120C A145C C169G U176A | 0.0254
C82G A111G A120C A145C C169G U176C | 0.0182
C82G A111G A120C A145C C169G U176G | 0.0055
C82G A111G A120C A145C C169U | 0.0144
C82G A111G A120C A145C C169U U176A | 0.0142
C82G A111G A120C A145C C169U U176C | 0.01
C82G A111G A120C A145C C169U U176G | 0.00475
C82G A111G A120C A145C U176A | 0.0266
C82G A111G A120C A145C U176C | 0.035
C82G A111G A120C A145C U176G | 0.00938
C82G A111G A120C A145G | 0.0871
C82G A111G A120C A145G C150A | 0.0184
C82G A111G A120C A145G C150A C169A | 0.0118
C82G A111G A120C A145G C150A C169A U176A | 0.0208
C82G A111G A120C A145G C150A C169A U176C | 0.0227
C82G A111G A120C A145G C150A C169A U176G | 0.00804

Variant | reverse-splicing fitness
C82G A111G A120C A145G C150A C169G | 0.0104
C82G A111G A120C A145G C150A C169G U176A | 0.02
C82G A111G A120C A145G C150A C169G U176C | 0.0237
C82G A111G A120C A145G C150A C169G U176G | 0.00696
C82G A111G A120C A145G C150A C169U | 0.0118
C82G A111G A120C A145G C150A C169U U176A | 0.0153
C82G A111G A120C A145G C150A C169U U176C | 0.015
C82G A111G A120C A145G C150A C169U U176G | 0.00817
C82G A111G A120C A145G C150A U176A | 0.0144
C82G A111G A120C A145G C150A U176C | 0.0254
C82G A111G A120C A145G C150A U176G | 0.0119
C82G A111G A120C A145G C150G | 0.0123
C82G A111G A120C A145G C150G C169A | 0.00978
C82G A111G A120C A145G C150G C169A U176A | 0.0153
C82G A111G A120C A145G C150G C169A U176C | 0.0151
C82G A111G A120C A145G C150G C169A U176G | 0.0091
C82G A111G A120C A145G C150G C169G | 0.00764
C82G A111G A120C A145G C150G C169G U176A | 0.0109
C82G A111G A120C A145G C150G C169G U176C | 0.0112
C82G A111G A120C A145G C150G C169G U176G | 0.00653
